Consider 7 molecules from publication PMC11376383, “Transcription factor ZmEREB97 regulates nitrate uptake in maize (Zea mays) roots”.

The chains are these.
B1: ZmNRT1.1B promoter probe (dsDNA)
DNA 1: AACAGGAGCACCCGCCGCCATGCTGCTCGCT
DNA 2: AGCGAGCAGCATGGCGGCGGGTGCTCCTGTT
B2: ZmNRT2.1 promoter probe (dsDNA)
DNA 1: CCAGCAGCAGCAGCCGACTAAACGGCATAGA
DNA 2: TCTATGCCGTTTAGTCGGCTGCTGCTGCTGG
B3: ZmNRT1.2 promoter probe (dsDNA)
DNA 1: CCACCGCACTGTCGCCGCCGTGCAGGCTCCA
DNA 2: TGGAGCCTGCACGGCGGCGACAGTGCGGTGG
B4: ZmNRT3.1A promoter probe (dsDNA)
DNA 1: CACCAGCACCGGCGCCGCCATTCGCCCCCTG
DNA 2: CAGGGGGCGAATGGCGGCGCCGGTGCTGGTG
B5: ZmNRT1.1A promoter probe (dsDNA)
DNA 1: ATATATAGCGGGGCGCCGCCCACCCGGCGGAGC
DNA 2: GCTCCGCCGGGTGGGCGGCGCCCCGCTATATAT
B6: ZmNRT2.5 promoter probe (dsDNA)
DNA 1: GCCGCGCCCGCTGCCGCCTCCCAGCTCGCT
DNA 2: AGCGAGCTGGGAGGCGGCAGCGGGCGCGGC
B7: Motif 1 probe (WT) (dsDNA)
DNA 1: CTCGGTCCACGCCGCCCGTCGGGGTTCG
DNA 2: CGAACCCCGACGGGCGGCGTGGACCGAG

In one data set the target is T1, ZmEREB97 (Zea mays (B73_v3 gene model; cDNA …, UniProt C4J4G2 1-222). Kind of data set: EMSA; partially competed by 50-fold cold probe; EMSA/Gel Shift Binding Buffer (Beyotime; composition, salt and pH not stated), 25 C, 20 min, about 80 ng protein, 2.5 ng probe. As to conditions: protein: recombinant; tags: 6xHis (pCold); label: 5'-biotin. Background: Mobility shift assays separate free from complexed probe on a gel.
T1 sequence (C4J4G2 entry or part of it): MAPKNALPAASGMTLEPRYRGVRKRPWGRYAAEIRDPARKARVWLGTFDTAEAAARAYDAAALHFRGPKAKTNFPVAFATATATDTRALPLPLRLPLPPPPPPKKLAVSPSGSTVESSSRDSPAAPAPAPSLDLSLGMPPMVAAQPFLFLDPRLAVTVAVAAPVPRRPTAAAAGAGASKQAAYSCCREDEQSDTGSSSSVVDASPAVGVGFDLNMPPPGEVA
On to B1, for which the binding result was “binds”.

As to B2, the binding result is recorded as “binds”.

As for B3, the binding result is on record as “binds”.

For the molecule B4, the binding result is “binds”.

B5: the binding result was “binds”.

For the molecule B6, the binding result is given as “binds”.

A further data set addresses T1, ZmEREB97. Nature of the data set: EMSA; EMSA/Gel Shift Binding Buffer (Beyotime; composition, salt and pH not stated), 25 C, 20 min, about 80 ng protein, 2.5 ng probe. Conditions: protein: recombinant; tags: 6xHis (pCold); label: 5'-biotin.
Consider B7, for which the binding result was “binds”.
